Measurements from patent US20110105394A1 (Novo Nordisk, published 2011).
*1 amine or outer side, *2 acyl side, *3 side chain or, on linkers, in order; H or OH if unused. Bridges are numbered along the chain shown (N, C = ends). The star is where a group is joined. C20 diacid = O=C(O)CCCCCCCCCCCCCCCCCCC(=O)*; γGlu = O=C(O)[C@H](CCC(=O)[*:2])N[*:1]

Biological target: T1, Amylin 3(a) receptor (human calcitonin receptor (CTa) with RAMP-3) (human) (UniProt P30988)
T1 sequence (looked up) 1: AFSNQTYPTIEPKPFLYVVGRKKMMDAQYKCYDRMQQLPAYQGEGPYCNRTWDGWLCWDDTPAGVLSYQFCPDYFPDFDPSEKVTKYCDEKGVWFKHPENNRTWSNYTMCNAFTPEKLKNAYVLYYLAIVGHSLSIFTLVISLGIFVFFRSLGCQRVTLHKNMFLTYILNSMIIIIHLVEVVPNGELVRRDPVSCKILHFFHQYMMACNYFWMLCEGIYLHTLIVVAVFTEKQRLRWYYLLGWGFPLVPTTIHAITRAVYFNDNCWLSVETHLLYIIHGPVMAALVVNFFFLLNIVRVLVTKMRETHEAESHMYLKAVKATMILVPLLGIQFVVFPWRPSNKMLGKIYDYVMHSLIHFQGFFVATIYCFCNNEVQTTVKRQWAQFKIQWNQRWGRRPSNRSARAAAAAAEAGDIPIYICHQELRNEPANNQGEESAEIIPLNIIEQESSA
T1 sequence (looked up) 2: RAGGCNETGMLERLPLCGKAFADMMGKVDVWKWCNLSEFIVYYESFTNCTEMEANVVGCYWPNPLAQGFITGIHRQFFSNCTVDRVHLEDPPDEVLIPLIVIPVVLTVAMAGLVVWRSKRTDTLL
Assay: cell-based or functional assay

Potency Luciferase: 0.1 nM
B1: N-alpha-[(S)-4-Carboxy-4-(19-carboxynonadecanoylamino)butyryl]-Glu-His-His-[Arg1,Arg17,Gln21]-pramlintide (peptide)
peptide: {C20 diacid-γGlu}-EHHRCNTATCATQRLANFLRHSSQNFGPILPPTNVGSNTY-NH2
modifications: disulfide 5-10
SMILES: CC[C@H](C)[C@H](NC(=O)[C@@H]1CCCN1C(=O)CNC(=O)[C@H](Cc1ccccc1)NC(=O)[C@H](CC(N)=O)NC(=O)[C@H](CCC(N)=O)NC(=O)[C@H](CO)NC(=O)[C@H](CO)NC(=O)[C@H](Cc1c[nH]cn1)NC(=O)[C@H](CCCNC(=N)N)NC(=O)[C@H](CC(C)C)NC(=O)[C@H](Cc1ccccc1)NC(=O)[C@H](CC(N)=O)NC(=O)[C@H](C)NC(=O)[C@H](CC(C)C)NC(=O)[C@H](CCCNC(=N)N)NC(=O)[C@H](CCC(N)=O)NC(=O)[C@@H](NC(=O)[C@H](C)NC(=O)[C@@H]1CSSC[C@H](NC(=O)[C@H](CCCNC(=N)N)NC(=O)[C@H](Cc2c[nH]cn2)NC(=O)[C@H](Cc2c[nH]cn2)NC(=O)[C@H](CCC(=O)O)NC(=O)CC[C@H](NC(=O)CCCCCCCCCCCCCCCCCCC(=O)O)C(=O)O)C(=O)N[C@@H](CC(N)=O)C(=O)N[C@@H]([C@@H](C)O)C(=O)N[C@@H](C)C(=O)N[C@@H]([C@@H](C)O)C(=O)N1)[C@@H](C)O)C(=O)N[C@@H](CC(C)C)C(=O)N1CCC[C@H]1C(=O)N1CCC[C@H]1C(=O)N[C@H](C(=O)N[C@@H](CC(N)=O)C(=O)N[C@H](C(=O)NCC(=O)N[C@@H](CO)C(=O)N[C@@H](CC(N)=O)C(=O)N[C@H](C(=O)N[C@@H](Cc1ccc(O)cc1)C(N)=O)[C@@H](C)O)C(C)C)[C@@H](C)O
